# Earlier results as cited in patent US10973880B2, “Compositions and methods for treating pulmonary hypertension” (Acceleron Pharma Inc., priority 2016, dated 2021).
# Substitutions are numbered along the chain they refer to. Names may count otherwise.
# T1: GDF11 (Homo sapiens, UniProt O95390)
# T1 sequence (O95390 299-407): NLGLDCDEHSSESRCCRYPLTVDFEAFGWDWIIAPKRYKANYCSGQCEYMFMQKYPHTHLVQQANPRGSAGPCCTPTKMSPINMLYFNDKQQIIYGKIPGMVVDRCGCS
# B1: K74Y: soluble ActRIIB-Fc variant K74Y (protein)
# chain: SGRGEAETRECIYYNANWELERTNQSGLERCEGEQDKRLHCYASWANSSGTIELVYKGCWLDDFNCYDRQECVATEENPQVYFCCCEGNFCNERFTHLPEA
# modifications: left off: a dimerising Fc or GST
# B2: WT (64R): soluble ActRIIB-Fc, wild type with arginine at position 64 (WO2006/012627) (protein)
# chain: B1 chain with A46R, Y56K
# modifications: left off: a dimerising Fc or GST
# B3: D80I: soluble ActRIIB-Fc variant D80I (protein)
# chain: B1 chain with Y56K, D62I
# modifications: left off: a dimerising Fc or GST
# B4: K74F: soluble ActRIIB-Fc variant K74F (protein)
# chain: B1 chain with Y56F
# modifications: left off: a dimerising Fc or GST
# B5: K74I: soluble ActRIIB-Fc variant K74I (protein)
# chain: B1 chain with Y56I
# modifications: left off: a dimerising Fc or GST
# Molecular target: T1, GDF11
# Settings: reproduced from WO2006/012627; cited from earlier work
row,Molecule,GDF11 binding relative to WT
1,B1,−− (<1/5 WT binding)
2,B2,(+++) (~5× increased binding)
3,B3,−− (<1/5 WT binding)
4,B4,−− (<1/5 WT binding)
5,B5,−− (<1/5 WT binding)
